# Measured values taken from the supplement of paper PMC9732359.
# ± gives the uncertainty stated by the source.
# Test: protein stability index of a GFP-peptide fusion (yeast GPS) (PSI 1-4); higher = more stable; sorted into four equal gates, so the index is relative within each strain
# Procedure, shortened: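 Yeast carrying a pooled library were grown to mid-log phase in leucine-free medium. Each library plasmid expresses Cherry and has a tiled 17-residue yeast protein peptide fused downstream of GFP. Cells were sorted into four equal gates by GFP/Cherry ratio, and plasmids from each gate were PCR-amplified, Illumina-sequenced and assigned to strains by barcode. Summing, across gates, the read frequency times the gate number gave each peptide's protein stability index.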
Sequence,protein stability index (doa10∆),protein stability index (pdr5∆),protein stability index (san1∆),protein stability index (ubr1∆)
LNNLPYKNEDVTALLEQ [YCS4],2.9 ± 0.058,3.09 ± 0.05,3.05 ± 0.047,2.99 ± 0.056
NCFFDVIVPQIVLDEVR [DIS3],1.62 ± 0.12,1.55 ± 0.17,–,1.47 ± 0.12
YTAVDTAKLQMRRFILG [RPN14],1.35 ± 0.27,1.47 ± 0.093,1.55 ± 0.3,1.25 ± 0.18
NKVHETSSKSSSLSAII [YDL088C/ASM4],2.67 ± 0.044,2.83 ± 0.053,2.81 ± 0.054,2.8 ± 0.035
EFTSKIGFTIKEYENHS [SMC1],2.59 ± 0.11,3.04 ± 0.061,2.84 ± 0.12,3.01 ± 0.063
LRASFNKLSSILQNEHD [SRB4],2.1 ± 0.1,2.22 ± 0.069,1.52 ± 0.14,2.49 ± 0.053
PVKALNECIASTSNALK [SNF12],2.85 ± 0.056,2.8 ± 0.066,2.75 ± 0.05,2.81 ± 0.051
LRLFNAPDSEYLCFILS [SNF2],2.28 ± 0.044,2.17 ± 0.044,2.15 ± 0.042,1.94 ± 0.031
MKDKEINIQKYNNNTIR [CSI1],2.42 ± 0.22,2.4 ± 0.15,–,2.52 ± 0.1
NIDSSAQFTFGKAATAK [YOR098C/NUP1],3.12 ± 0.099,3.07 ± 0.14,3.22 ± 0.13,3.1 ± 0.072
MSLPATFDLTPEDAQLL [RPS0A],2.75 ± 0.079,2.83 ± 0.12,2.47 ± 0.15,2.31 ± 0.11
NFRTMQQQQMQQQQQQQ [SSN2],–,3.15 ± 0.23,2.37 ± 0.12,–
NYAMTRNILHNTVPQVT [SRB5],1.7 ± 0.055,2.15 ± 0.061,1.66 ± 0.08,1.74 ± 0.038
NGVRALFHSCTRIQYVD [GRR1],2.08 ± 0.088,2.31 ± 0.055,1.86 ± 0.068,2.59 ± 0.051
SSLHSPTSDEPVPESAG [SRB4],2.61 ± 0.065,3.16 ± 0.081,2.95 ± 0.063,3 ± 0.057
SAEDQLYAITFRKGLGN [QCR2],3.06 ± 0.12,3.14 ± 0.16,2.96 ± 0.2,3.03 ± 0.17
IVPSMTHLEIEPFTILG [RET1],1.49 ± 0.037,2.05 ± 0.055,2.29 ± 0.1,2.27 ± 0.035
FMTKLLEVANDLQLLYV [IRR1],1.72 ± 0.11,1.98 ± 0.075,2.23 ± 0.12,1.24 ± 0.045
TNILTKVDINADSAVNR [PRP28],3.37 ± 0.062,3.4 ± 0.074,3.3 ± 0.055,3.31 ± 0.059
FVIGVIIGTFSDSYKVS [RRP40],1.43 ± 0.057,1.41 ± 0.068,2.04 ± 0.12,2.23 ± 0.078

Sequence,protein stability index (doa10∆),protein stability index (pdr5∆),protein stability index (san1∆),protein stability index (ubr1∆)
SAQAETEALLLEHDVEY [DIS3],3.19 ± 0.087,3.22 ± 0.098,3.3 ± 0.095,3.15 ± 0.066
FDGFLFGSRVMIAKEVK [FAS1],2.58 ± 0.15,1.56 ± 0.18,–,2.55 ± 0.074
THAQRTGLSQIPNRRFT [PRP8],2.8 ± 0.048,2.62 ± 0.047,2.83 ± 0.048,2.88 ± 0.043
RAGVCEYNEDSRLCTPI [RPN13],2.29 ± 0.12,1.86 ± 0.078,1.41 ± 0.2,2.84 ± 0.072
ELVETSEVRKAVSIETA [FAS2],2.43 ± 0.14,–,–,1.27 ± 0.27
LTKYKEMERIVKNLTKY [SRP68],2.96 ± 0.069,2.85 ± 0.073,2.82 ± 0.04,2.78 ± 0.041
FSQKANKTKAVDNTVPS [YOR098C/NUP1],2.15 ± 0.085,1.63 ± 0.056,1.81 ± 0.1,2.17 ± 0.046
SVGLPSKVASSLVIIIL [ECM29],2.21 ± 0.048,1.8 ± 0.041,2.28 ± 0.064,2.21 ± 0.061
QIRDVMERFSVLCNSNI [RRP6],2.41 ± 0.11,2.82 ± 0.11,2.18 ± 0.15,2.38 ± 0.084
LNTFHFAGVASKKVTSG [RPO21],2.67 ± 0.093,3.13 ± 0.078,2.9 ± 0.065,2.9 ± 0.077
SPYERRLIDLIRNSGEK [RPL36A],1.86 ± 0.093,1.89 ± 0.098,1.68 ± 0.16,1.89 ± 0.086
RNTMMIQCQIDKLYIHF [RGR1],1.98 ± 0.051,2.15 ± 0.061,2.08 ± 0.069,2.19 ± 0.041
NELMRWPIVQKTYEPVL [RPN5],2.25 ± 0.06,2.39 ± 0.057,2.24 ± 0.075,1.83 ± 0.037
RVKDIHLRKLLDGELDF [RET1],2.87 ± 0.06,2.93 ± 0.062,3.03 ± 0.066,3.02 ± 0.041
EKACQVLKYMLLSKIML [RPN6],1.76 ± 0.049,1.49 ± 0.048,1.13 ± 0.1,1.41 ± 0.031
KSQNTALPSTHKVTQKK [SIR4],2.6 ± 0.061,2.9 ± 0.061,2.79 ± 0.071,3.01 ± 0.05
TQATSEDGTSASFQIVE [RPC19],2.88 ± 0.073,3.18 ± 0.079,3.05 ± 0.051,3.12 ± 0.068
DEGHVLKLENLHVVSKS [SIN4],3.14 ± 0.11,2.65 ± 0.16,2.73 ± 0.19,3.02 ± 0.13
VIDTLAAGYGKILGKGR [RPL28],3.09 ± 0.12,2.63 ± 0.085,3.11 ± 0.17,3.52 ± 0.14
SVAVHFQYVIDESSGTS [SMC4],1.99 ± 0.081,1.6 ± 0.074,2.01 ± 0.074,1.77 ± 0.055
